# Source: patent US20240018184A1
# Columns and labels:
# [1] = target: Cy5-hIgG (Cy5-labelled human immunoglobulin G) (human); experiment: confocal microscopy of beads with Cy5-hIgG, after 8 h in 2 M NaOH
# [2] = target: human polyclonal IgG (Gammanorm) (human); experiment: pH gradient elution (citrate pH 6-3) from column
# [3] = target: Cy5-hIgG (Cy5-labelled human immunoglobulin G) (human); experiment: confocal microscopy of beads with Cy5-hIgG, after 16 h in 1 M NaOH
# [4] = target: mAb (sample of Example 11, 4.28 mg/ml); experiment: load volume to 35% breakthrough, PCC columns, CIP with 2 M NaOH
Ig-binding capacity lost [1],Elution pH (peak 1) [2],Elution pH (peak 2) [2],binding capacity lost [3],original capacity remaining [4],Substance
50%,4.01 pH,3.7 pH,50%,–,MabSelect SuRe LX (ligand of the commercial reference matrix)
–,4.24 pH,3.81 pH,–,–,"Zvar(Q9A, N11E, Q40V, A42K, N43A, L44I)6 (designed binder)"
–,–,–,–,< 80%,MabSelect SuRe (ligand of the commercial reference matrix)
